{
  "source": "paper PMC2958812",
  "about": "“Evidence for a Xer/dif System for Chromosome Resolution in Archaea”",
  "key": {"XerA (Pab0255) [1]": {"target": "T1, XerA (Pab0255) (Pyrococcus abyssi, UniProt Q9V1P5 1-286)", "T1 sequence": "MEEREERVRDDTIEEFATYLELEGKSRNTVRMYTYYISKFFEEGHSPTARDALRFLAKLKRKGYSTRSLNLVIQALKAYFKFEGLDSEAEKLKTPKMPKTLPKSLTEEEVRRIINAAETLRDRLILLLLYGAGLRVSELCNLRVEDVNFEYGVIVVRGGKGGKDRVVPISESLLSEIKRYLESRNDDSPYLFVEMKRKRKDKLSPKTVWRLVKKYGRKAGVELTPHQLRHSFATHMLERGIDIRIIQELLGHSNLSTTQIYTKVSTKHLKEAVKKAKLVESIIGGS", "assay": "EMSA; 20 C; 0.5 ug poly(dIdC); EMSA: 0.5 uM labeled DNA, 50 mM Tris pH 7.5, 30 mM NaCl, 0.5 ug poly(dIdC).poly(dIdC), 20 ul, 30 min at 20 or 65 C; native PAGE in TGE at 4 C", "conditions": "protein: recombinant; tags: N-terminal His6 (MHHHHHH, from forward primer); label: 5'-32P on top strand; blunt"}, "XerA (Pab0255) [2]": {"target": "T1, XerA (Pab0255)", "assay": "EMSA; 65 C; 0.5 ug poly(dIdC); EMSA: 0.5 uM labeled DNA, 50 mM Tris pH 7.5, 30 mM NaCl, 0.5 ug poly(dIdC).poly(dIdC), 20 ul, 30 min at 20 or 65 C; native PAGE in TGE at 4 C", "conditions": "protein: recombinant; tags: N-terminal His6 (MHHHHHH, from forward primer); label: 5'-32P on top strand; blunt"}},
  "data": [
    {"binder": "attP (SSV1 minimal) (dsDNA) DNA 1: GTTAACTATCTTTTCCGCCTCCGGAGCCGGAGGTCCCGTGTTG DNA 2: CAACACGGGACCTCCGGCTCCGGAGGCGGAAAAGATAGTTAAC", "values": [
      {"measurement": "binding signal", "setting": "XerA (Pab0255) [1]", "value": "0.25 complex formation relative to dif-Pab (4 fold less)"},
      {"measurement": "binding signal", "setting": "XerA (Pab0255) [2]", "value": "0.125 complex formation relative to dif-Pab (8 fold less)"}
    ]},
    {"binder": "dif-Pab (dsDNA) DNA 1: GTTAACTATATTGGATATAATCGGCCTTATATCTAAAGTGTTG DNA 2: CAACACTTTAGATATAAGGCCGATTATATCCAATATAGTTAAC", "values": [
      {"measurement": "binding signal", "setting": "XerA (Pab0255) [1]", "value": "4 fold complex formation vs attP"},
      {"measurement": "binding signal", "setting": "XerA (Pab0255) [2]", "value": "8 fold complex formation vs attP"}
    ]}
  ]
}
